# Source: article PMC9482650, “Quantitative fragmentomics allow affinity mapping of interactomes” (Nature Communications, 2022)
# T1: APBA1_1, Q02410
# T1 sequence (Q02410 651-752, limits assumed, looked up): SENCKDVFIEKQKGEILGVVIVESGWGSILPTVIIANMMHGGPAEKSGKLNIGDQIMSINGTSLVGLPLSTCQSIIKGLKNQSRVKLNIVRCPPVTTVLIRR
# T2: APBA1_2, Q02410
# T2 sequence (Q02410 742-832, limits assumed, looked up): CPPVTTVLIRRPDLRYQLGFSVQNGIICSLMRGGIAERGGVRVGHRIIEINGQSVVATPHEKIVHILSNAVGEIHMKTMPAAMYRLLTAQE
# T3: ARHGAP21, Q5T5U3
# T3 sequence (Q5T5U3 45-169, limits assumed, looked up): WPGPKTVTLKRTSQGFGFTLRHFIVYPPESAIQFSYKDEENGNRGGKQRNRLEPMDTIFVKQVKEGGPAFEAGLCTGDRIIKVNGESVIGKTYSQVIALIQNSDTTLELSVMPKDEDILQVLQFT
# T4: ARHGEF11, O15085
# T4 sequence (O15085 42-136, limits assumed, looked up): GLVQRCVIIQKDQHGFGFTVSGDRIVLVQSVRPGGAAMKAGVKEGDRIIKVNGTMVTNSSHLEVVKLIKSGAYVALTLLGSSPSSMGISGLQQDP
# T5: LIN7C, Q9NUP9
# T5 sequence (Q9NUP9 88-185, limits assumed, looked up): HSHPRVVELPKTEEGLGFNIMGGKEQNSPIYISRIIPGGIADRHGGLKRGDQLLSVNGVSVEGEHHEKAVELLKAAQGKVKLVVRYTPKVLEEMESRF
# T6: LNX2_3, Q8N448
# T6 sequence (Q8N448 463-564, limits assumed, looked up): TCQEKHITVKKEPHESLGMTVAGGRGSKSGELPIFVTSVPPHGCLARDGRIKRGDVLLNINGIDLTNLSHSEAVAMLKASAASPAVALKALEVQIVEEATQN
# T7: LRRC7, Q96NW7
# T7 sequence (Q96NW7 1440-1537, limits assumed, looked up): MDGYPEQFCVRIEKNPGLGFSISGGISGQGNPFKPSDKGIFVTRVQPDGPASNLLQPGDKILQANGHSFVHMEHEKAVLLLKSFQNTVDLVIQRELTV
# T8: RAPGEF6, Q8TEU7
# T8 sequence (Q8TEU7 525-625, limits assumed, looked up): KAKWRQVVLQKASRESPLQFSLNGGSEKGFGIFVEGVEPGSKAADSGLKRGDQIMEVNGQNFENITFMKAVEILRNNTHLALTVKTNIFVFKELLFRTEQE
# T9: SHANK1, Q9Y566
# T9 sequence (Q9Y566 658-767, limits assumed, looked up): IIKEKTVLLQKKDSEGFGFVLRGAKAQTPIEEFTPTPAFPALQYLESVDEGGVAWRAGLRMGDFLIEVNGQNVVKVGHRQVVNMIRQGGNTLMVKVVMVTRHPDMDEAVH
# T10: TJP3_3, O95049
# T10 sequence (O95049 375-456, limits assumed, looked up): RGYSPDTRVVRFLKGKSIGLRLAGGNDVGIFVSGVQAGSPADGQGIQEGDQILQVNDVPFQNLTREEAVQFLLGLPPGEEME
# Target: T1, APBA1_1, Q02410
# Assay: holdup assay
# Parameters: key: below the threshold = too weak to quantify, mostly under pKd 3.1 to 4
# Conditions: plain residues with an end cap or a label only (N-terminal biotin on a linker: ado-ado)
row,Binder,pKd
1,"KAEEKPPSKV [SCN4B, Q8IWT1]",below the threshold
2,"HDDYFYHDEL [RCN2, Q14257]",below the threshold

# Target: T2, APBA1_2, Q02410
# Assay: holdup assay
# Parameters: key: below the threshold = too weak to quantify, mostly under pKd 3.1 to 4
# Conditions: plain residues with an end cap or a label only (N-terminal biotin on a linker: ado-ado)
row,Binder,pKd
1,"KAEEKPPSKV [SCN4B, Q8IWT1]",3.85
2,"HDDYFYHDEL [RCN2, Q14257]",3.98

# Target: T3, ARHGAP21, Q5T5U3
# Assay: holdup assay
# Parameters: key: below the threshold = too weak to quantify, mostly under pKd 3.1 to 4
# Conditions: plain residues with an end cap or a label only (N-terminal biotin on a linker: ado-ado)
row,Binder,pKd
1,"KAEEKPPSKV [SCN4B, Q8IWT1]",below the threshold
2,"HDDYFYHDEL [RCN2, Q14257]",4.17

# Target: T4, ARHGEF11, O15085
# Assay: holdup assay
# Parameters: key: below the threshold = too weak to quantify, mostly under pKd 3.1 to 4
# Conditions: plain residues with an end cap or a label only (N-terminal biotin on a linker: ado-ado)
row,Binder,pKd
1,"KAEEKPPSKV [SCN4B, Q8IWT1]",below the threshold
2,"HDDYFYHDEL [RCN2, Q14257]",4

# Target: DLG2_3, Q15700
# Assay: holdup assay
# Parameters: key: below the threshold = too weak to quantify, mostly under pKd 3.1 to 4
# Conditions: plain residues with an end cap or a label only (N-terminal biotin on a linker: ado-ado)
row,Binder,pKd
1,"KAEEKPPSKV [SCN4B, Q8IWT1]",below the threshold
2,"HDDYFYHDEL [RCN2, Q14257]",below the threshold

# Target: DLG4_1, P78352
# Sequence (P78352 62-152): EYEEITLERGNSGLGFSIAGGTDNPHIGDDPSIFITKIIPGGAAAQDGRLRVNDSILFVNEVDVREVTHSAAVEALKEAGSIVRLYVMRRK
# Assay: holdup assay
# Parameters: key: below the threshold = too weak to quantify, mostly under pKd 3.1 to 4
# Conditions: plain residues with an end cap or a label only (N-terminal biotin on a linker: ado-ado)
row,Binder,pKd
1,"KAEEKPPSKV [SCN4B, Q8IWT1]",below the threshold
2,"HDDYFYHDEL [RCN2, Q14257]",3.54

# Target: FRMPD2_1, Q68DX3
# Sequence (Q68DX3 770-861): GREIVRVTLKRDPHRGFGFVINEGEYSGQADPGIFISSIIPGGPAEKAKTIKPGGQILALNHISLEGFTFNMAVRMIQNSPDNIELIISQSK
# Assay: holdup assay
# Parameters: key: below the threshold = too weak to quantify, mostly under pKd 3.1 to 4
# Conditions: plain residues with an end cap or a label only (N-terminal biotin on a linker: ado-ado)
row,Binder,pKd
1,"KAEEKPPSKV [SCN4B, Q8IWT1]",below the threshold
2,"HDDYFYHDEL [RCN2, Q14257]",below the threshold

# Target: FRMPD2_2, Q68DX3
# Sequence (Q68DX3 944-1038): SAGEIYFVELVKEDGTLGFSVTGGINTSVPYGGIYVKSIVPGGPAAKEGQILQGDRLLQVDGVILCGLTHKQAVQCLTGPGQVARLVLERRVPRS
# Assay: holdup assay
# Parameters: key: below the threshold = too weak to quantify, mostly under pKd 3.1 to 4
# Conditions: plain residues with an end cap or a label only (N-terminal biotin on a linker: ado-ado)
row,Binder,pKd
1,"KAEEKPPSKV [SCN4B, Q8IWT1]",below the threshold
2,"HDDYFYHDEL [RCN2, Q14257]",below the threshold

# Target: GRID2IP_1, A4D2P6
# Sequence (A4D2P6 1-87): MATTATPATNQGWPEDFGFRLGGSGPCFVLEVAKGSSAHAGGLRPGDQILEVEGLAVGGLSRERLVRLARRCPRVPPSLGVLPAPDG
# Assay: holdup assay
# Parameters: key: below the threshold = too weak to quantify, mostly under pKd 3.1 to 4
# Conditions: plain residues with an end cap or a label only (N-terminal biotin on a linker: ado-ado)
row,Binder,pKd
1,"KAEEKPPSKV [SCN4B, Q8IWT1]",below the threshold
2,"HDDYFYHDEL [RCN2, Q14257]",below the threshold

# Target: Inadl_2, Q8NI35
# Sequence (Q8NI35 238-335): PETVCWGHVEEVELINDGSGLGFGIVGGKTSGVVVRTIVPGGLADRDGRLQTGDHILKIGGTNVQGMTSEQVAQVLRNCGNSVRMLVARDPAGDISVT
# Assay: holdup assay
# Parameters: key: below the threshold = too weak to quantify, mostly under pKd 3.1 to 4
# Conditions: plain residues with an end cap or a label only (N-terminal biotin on a linker: ado-ado)
row,Binder,pKd
1,"KAEEKPPSKV [SCN4B, Q8IWT1]",below the threshold
2,"HDDYFYHDEL [RCN2, Q14257]",below the threshold

# Target: Inadl_4, Q8NI35
# Sequence (Q8NI35 547-651): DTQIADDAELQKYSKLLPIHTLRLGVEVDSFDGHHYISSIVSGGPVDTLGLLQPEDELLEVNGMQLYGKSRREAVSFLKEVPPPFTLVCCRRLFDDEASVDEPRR
# Assay: holdup assay
# Parameters: key: below the threshold = too weak to quantify, mostly under pKd 3.1 to 4
# Conditions: plain residues with an end cap or a label only (N-terminal biotin on a linker: ado-ado)
row,Binder,pKd
1,"KAEEKPPSKV [SCN4B, Q8IWT1]",below the threshold
2,"HDDYFYHDEL [RCN2, Q14257]",below the threshold

# Target: Inadl_8, Q8NI35
# Sequence (Q8NI35 1425-1530): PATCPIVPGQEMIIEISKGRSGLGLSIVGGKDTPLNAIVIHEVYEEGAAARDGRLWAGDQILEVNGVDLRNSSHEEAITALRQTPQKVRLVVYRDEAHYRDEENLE
# Assay: holdup assay
# Parameters: key: below the threshold = too weak to quantify, mostly under pKd 3.1 to 4
# Conditions: plain residues with an end cap or a label only (N-terminal biotin on a linker: ado-ado)
row,Binder,pKd
1,"KAEEKPPSKV [SCN4B, Q8IWT1]",3.98
2,"HDDYFYHDEL [RCN2, Q14257]",below the threshold

# Target: LDB3, O75112
# Sequence (O75112 1-94): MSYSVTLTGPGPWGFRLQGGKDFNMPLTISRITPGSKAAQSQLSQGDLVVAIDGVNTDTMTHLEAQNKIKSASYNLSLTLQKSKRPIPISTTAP
# Assay: holdup assay
# Parameters: key: below the threshold = too weak to quantify, mostly under pKd 3.1 to 4
# Conditions: plain residues with an end cap or a label only (N-terminal biotin on a linker: ado-ado)
row,Binder,pKd
1,"KAEEKPPSKV [SCN4B, Q8IWT1]",below the threshold
2,"HDDYFYHDEL [RCN2, Q14257]",4.09

# Target: T5, LIN7C, Q9NUP9
# Assay: holdup assay
# Parameters: key: below the threshold = too weak to quantify, mostly under pKd 3.1 to 4
# Conditions: plain residues with an end cap or a label only (N-terminal biotin on a linker: ado-ado)
row,Binder,pKd
1,"KAEEKPPSKV [SCN4B, Q8IWT1]",below the threshold
2,"HDDYFYHDEL [RCN2, Q14257]",below the threshold

# Target: T6, LNX2_3, Q8N448
# Assay: holdup assay
# Parameters: key: below the threshold = too weak to quantify, mostly under pKd 3.1 to 4
# Conditions: plain residues with an end cap or a label only (N-terminal biotin on a linker: ado-ado)
row,Binder,pKd
1,"KAEEKPPSKV [SCN4B, Q8IWT1]",below the threshold
2,"HDDYFYHDEL [RCN2, Q14257]",below the threshold

# Target: T7, LRRC7, Q96NW7
# Assay: holdup assay
# Parameters: key: below the threshold = too weak to quantify, mostly under pKd 3.1 to 4
# Conditions: plain residues with an end cap or a label only (N-terminal biotin on a linker: ado-ado)
row,Binder,pKd
1,"KAEEKPPSKV [SCN4B, Q8IWT1]",below the threshold
2,"HDDYFYHDEL [RCN2, Q14257]",below the threshold

# Target: MAGI2_3, Q86UL8
# Sequence (Q86UL8 600-682): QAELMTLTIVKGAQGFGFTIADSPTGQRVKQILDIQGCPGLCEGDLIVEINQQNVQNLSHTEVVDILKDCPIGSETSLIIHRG
# Assay: holdup assay
# Parameters: key: below the threshold = too weak to quantify, mostly under pKd 3.1 to 4
# Conditions: plain residues with an end cap or a label only (N-terminal biotin on a linker: ado-ado)
row,Binder,pKd
1,"KAEEKPPSKV [SCN4B, Q8IWT1]",3.48
2,"HDDYFYHDEL [RCN2, Q14257]",below the threshold

# Target: MAGI2_4, Q86UL8
# Sequence (Q86UL8 772-865): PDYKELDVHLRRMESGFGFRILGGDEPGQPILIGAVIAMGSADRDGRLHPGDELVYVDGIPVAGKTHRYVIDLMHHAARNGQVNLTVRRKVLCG
# Assay: holdup assay
# Parameters: key: below the threshold = too weak to quantify, mostly under pKd 3.1 to 4
# Conditions: plain residues with an end cap or a label only (N-terminal biotin on a linker: ado-ado)
row,Binder,pKd
1,"KAEEKPPSKV [SCN4B, Q8IWT1]",below the threshold
2,"HDDYFYHDEL [RCN2, Q14257]",below the threshold

# Target: MAGI3_2, Q5TCQ9
# Sequence (Q5TCQ9 398-503): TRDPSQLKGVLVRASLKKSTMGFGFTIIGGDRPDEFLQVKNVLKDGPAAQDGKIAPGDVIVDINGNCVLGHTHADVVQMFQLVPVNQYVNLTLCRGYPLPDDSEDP
# Assay: holdup assay
# Parameters: key: below the threshold = too weak to quantify, mostly under pKd 3.1 to 4
# Conditions: plain residues with an end cap or a label only (N-terminal biotin on a linker: ado-ado)
row,Binder,pKd
1,"KAEEKPPSKV [SCN4B, Q8IWT1]",below the threshold
2,"HDDYFYHDEL [RCN2, Q14257]",below the threshold

# Target: NHERF4_1, Q86UT5-2
# Sequence (Q86UT5 other isoform, or with tags, fused parts or gaps): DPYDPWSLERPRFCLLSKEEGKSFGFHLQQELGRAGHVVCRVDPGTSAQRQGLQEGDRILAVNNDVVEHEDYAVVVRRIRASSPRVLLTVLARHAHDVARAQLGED
# Assay: holdup assay
# Parameters: key: below the threshold = too weak to quantify, mostly under pKd 3.1 to 4
# Conditions: plain residues with an end cap or a label only (N-terminal biotin on a linker: ado-ado)
row,Binder,pKd
1,"KAEEKPPSKV [SCN4B, Q8IWT1]",below the threshold
2,"HDDYFYHDEL [RCN2, Q14257]",4.1

# Target: NHERF4_2, Q86UT5
# Sequence (Q86UT5 220-308): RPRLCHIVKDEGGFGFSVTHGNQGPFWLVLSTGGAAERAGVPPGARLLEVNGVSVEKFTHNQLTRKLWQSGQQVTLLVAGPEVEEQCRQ
# Assay: holdup assay
# Parameters: key: below the threshold = too weak to quantify, mostly under pKd 3.1 to 4
# Conditions: plain residues with an end cap or a label only (N-terminal biotin on a linker: ado-ado)
row,Binder,pKd
1,"KAEEKPPSKV [SCN4B, Q8IWT1]",3.49
2,"HDDYFYHDEL [RCN2, Q14257]",below the threshold

# Target: PARD3_3, Q8TEW0
# Sequence (Q8TEW0 582-685): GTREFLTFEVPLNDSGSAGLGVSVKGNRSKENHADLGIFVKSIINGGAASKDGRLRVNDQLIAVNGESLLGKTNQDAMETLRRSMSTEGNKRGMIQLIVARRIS
# Assay: holdup assay
# Parameters: key: below the threshold = too weak to quantify, mostly under pKd 3.1 to 4
# Conditions: plain residues with an end cap or a label only (N-terminal biotin on a linker: ado-ado)
row,Binder,pKd
1,"KAEEKPPSKV [SCN4B, Q8IWT1]",below the threshold
2,"HDDYFYHDEL [RCN2, Q14257]",3.96

# Target: PDLIM1, O00151
# Sequence (O00151 1-87): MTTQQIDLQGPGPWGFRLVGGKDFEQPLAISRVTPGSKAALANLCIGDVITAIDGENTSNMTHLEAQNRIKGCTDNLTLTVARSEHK
# Assay: holdup assay
# Parameters: key: below the threshold = too weak to quantify, mostly under pKd 3.1 to 4
# Conditions: plain residues with an end cap or a label only (N-terminal biotin on a linker: ado-ado)
row,Binder,pKd
1,"KAEEKPPSKV [SCN4B, Q8IWT1]",below the threshold
2,"HDDYFYHDEL [RCN2, Q14257]",3.83

# Target: PTPN3, P26045
# Sequence (P26045 505-587): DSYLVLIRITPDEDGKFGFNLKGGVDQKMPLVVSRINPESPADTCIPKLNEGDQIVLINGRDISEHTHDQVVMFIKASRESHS
# Assay: holdup assay
# Parameters: key: below the threshold = too weak to quantify, mostly under pKd 3.1 to 4
# Conditions: plain residues with an end cap or a label only (N-terminal biotin on a linker: ado-ado)
row,Binder,pKd
1,"KAEEKPPSKV [SCN4B, Q8IWT1]",below the threshold
2,"HDDYFYHDEL [RCN2, Q14257]",below the threshold

# Target: T8, RAPGEF6, Q8TEU7
# Assay: holdup assay
# Parameters: key: below the threshold = too weak to quantify, mostly under pKd 3.1 to 4
# Conditions: plain residues with an end cap or a label only (N-terminal biotin on a linker: ado-ado)
row,Binder,pKd
1,"KAEEKPPSKV [SCN4B, Q8IWT1]",below the threshold
2,"HDDYFYHDEL [RCN2, Q14257]",below the threshold

# Target: SCRIB_2, Q14160
# Sequence (Q14160 857-960): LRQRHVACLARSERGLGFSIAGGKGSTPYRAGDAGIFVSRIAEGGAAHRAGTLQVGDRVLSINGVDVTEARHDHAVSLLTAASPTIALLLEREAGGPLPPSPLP
# Assay: holdup assay
# Parameters: key: below the threshold = too weak to quantify, mostly under pKd 3.1 to 4
# Conditions: plain residues with an end cap or a label only (N-terminal biotin on a linker: ado-ado)
row,Binder,pKd
1,"KAEEKPPSKV [SCN4B, Q8IWT1]",below the threshold
2,"HDDYFYHDEL [RCN2, Q14257]",below the threshold

# Target: T9, SHANK1, Q9Y566
# Assay: holdup assay
# Parameters: key: below the threshold = too weak to quantify, mostly under pKd 3.1 to 4
# Conditions: plain residues with an end cap or a label only (N-terminal biotin on a linker: ado-ado)
row,Binder,pKd
1,"KAEEKPPSKV [SCN4B, Q8IWT1]",below the threshold
2,"HDDYFYHDEL [RCN2, Q14257]",below the threshold

# Target: T10, TJP3_3, O95049
# Assay: holdup assay
# Parameters: key: below the threshold = too weak to quantify, mostly under pKd 3.1 to 4
# Conditions: plain residues with an end cap or a label only (N-terminal biotin on a linker: ado-ado)
row,Binder,pKd
1,"KAEEKPPSKV [SCN4B, Q8IWT1]",below the threshold
2,"HDDYFYHDEL [RCN2, Q14257]",below the threshold
